The record followed here is patent publication US6962792B1, “Methods and means for inhibition of Cdk4 activity” (Cyclacel Limited, priority 1996, dated 2005).

What is called inhibition is the change of the read-out against control, counted positive when it falls.

In test [1] the target is cyclin D1-Cdk4 complex co-expressed in Sf9 insect cells (lysate) (UniProt P11802). The test can be described thus: cell-based or functional assay.
Test [2] deals with T1, cyclin D1-Cdk4 (Homo sapiens, UniProt P11802).
T1 construct: made in house; host or cells: Sf9 insect cells, baculovirus co-infection; unpurified lysate
T1 sequence (P11802 whole entry): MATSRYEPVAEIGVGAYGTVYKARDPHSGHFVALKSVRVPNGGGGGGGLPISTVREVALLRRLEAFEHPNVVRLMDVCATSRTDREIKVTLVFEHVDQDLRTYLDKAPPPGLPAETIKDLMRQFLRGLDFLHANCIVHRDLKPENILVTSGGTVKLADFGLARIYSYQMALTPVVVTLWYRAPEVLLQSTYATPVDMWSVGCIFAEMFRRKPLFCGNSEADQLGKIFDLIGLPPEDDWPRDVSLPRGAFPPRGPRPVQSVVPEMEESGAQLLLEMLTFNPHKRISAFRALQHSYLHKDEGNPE
T1 sequence (P24385 whole entry, further chain): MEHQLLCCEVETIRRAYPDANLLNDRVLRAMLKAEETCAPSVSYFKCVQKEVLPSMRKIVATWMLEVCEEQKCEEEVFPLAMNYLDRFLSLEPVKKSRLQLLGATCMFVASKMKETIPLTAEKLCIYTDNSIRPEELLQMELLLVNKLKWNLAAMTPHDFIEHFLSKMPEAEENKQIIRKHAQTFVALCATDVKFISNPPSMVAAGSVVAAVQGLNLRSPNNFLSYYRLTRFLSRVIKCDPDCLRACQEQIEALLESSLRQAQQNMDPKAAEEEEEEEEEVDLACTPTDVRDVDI
The test can be described thus: Cyclin D1-Cdk4 GST-Rb phosphorylation assay (Sf9 insect cell lysate). The class given is biochemical. The settings on record: GST-Rb substrate; read-out: I0.5 for inhibition of Cdk4 activity. As for the experimental part: (§1) “x” indicates no addition of peptide.
(§2) Cyclins and CDKs—Cdk4 and cyclin D1, Cdk2 and cyclin E and Cdc2 and cyclin B were co-expressed in Sf9 insect cells infected with the appropriate baculovirus constructs. The cells were harvested two days after infection by low speed centrifugation and the pellet was lysed in an equal volume of 10 mM Hepes, pH 7.4 containing: 10 mM NaCl, 1 mM EDTA, and 0.1 mM phenylmethane sulphonyl fluoride, 2 mM DTT and centrifuged at 14000×g for 15 min. The supernatant was removed, aliquoted and immediately frozen in liquid nitrogen. Thawed lysate was used only once and was never refrozen. Labelled Cdk4 and cyclin D1 were produced by translation in the presence of [^35S] methionine using a rabbit reticulocyte lysate in vitro translation kit (Promega).
(§3) Phosphorylation of GST-Rb—Cdk4 activity was measured using the cyclin D1-Cdk4 containing insect cell lysate described above. Extract (1 μl) was added to a final reaction volume of 10 μl, containing: 50 mM Hepes, pH 7.4, 10 mM MgCl2, 2.5 mM EGTA, 1 mM DTT, 10 mM β-glycerophosphate, 1 mM NaF, 10 mM PKI, 50 μM ATP containing [^32P] ATP (1000 cpm/pMol) and 0.5 μg GST-Rb. […] The samples were analysed by SDS-PAGE on 12% gels followed by auto-radiography and quantification using a Bio-Imager.

Test [3] concerns the target T2, cyclin D1-Cdk4 (Homo sapiens, UniProt P11802+P24385).
T2 construct: made in house; host or cells: Sf9 insect cells, baculovirus co-infection; unpurified lysate
The description is as above. The format is biochemical. As for the experimental part:
as §1, §2, §3

Test [4] deals with T2, cyclin D1-Cdk4. In words: Relief of p21WAF1 inhibition in cyclin D1-Cdk4 GST-Rb phosphorylation assay. The settings on record: peptide 1, 5, 17 & 34 μM, fixed concentration of p21WAF1. The class given is biochemical.
For a further test, the system named is HaCaT cells. In words: Cell cycle measurements by BrdU/FACS in HaCaT cells. The class given is cell-based, human. The settings on record: for G1-, S-phase distribution / G1 arrest: proliferating HaCaT cells, 24 hours, Peptide-I and Peptide-III 25 μM, Peptide-II 50 μM. As for the experimental part: The peptides were added to proliferating HaCaT cells, grown in DMEM plus 10% FCS. The cells were incubated for 24 hours pulse labelled during with 15 μM BrdU, fixed and then analysed by FACS.
Carrier linked peptides were designed for delivery into proliferating HaCaT cells (see FIG. 9). Cells were seeded on 30mm culture plates and grown to 50% confluency in Dulbecco's modified Eagle's medium (DMEM) supplemented with 10% (v/v) foetal calf serum (FCS). Peptides were added to the medium and the cells were incubated for 24 hours. During the last 30 minutes of the incubation the cells were pulse labelled in the presence of 15 μM BrdU. The cells were trypsinised, fixed in absolute alcohol and prepared for FACS analysis using a single laser flow cytometer (Becton-Dickinson, FACScan) as previously described (Renzing et al, 1996).

The test system of test [5] is pRb phosphorylation in HaCaT cells. In words: pRb phosphorylation in HaCaT cells (Western blot). The class given is cell-based, human. The settings on record: serum-starved HaCaT cells released with 10% FCS, 24 hour time course; Peptide-I 25 μM, Peptide-II 50 μM. The source says:
Samples were taken at the times shown and analysed by SDS-PAGE/Western blot stained for pRb. pRb represents hypophosphorylated Rb protein and pRb* refers to hyperphosphorylated Rb protein. It should be pointed out that equal amounts of total protein were loaded per lane and that the antibody appears to preferentially recognise phosphorylated forms of the Rb protein. Peptide I corresponds with SEQ ID NO:24; peptide II corresponds with SEQ ID NO:25; and peptide III corresponds with SEQ ID NO:26.
HaCaT cells were seeded on 30 mm culture plates at 25% confluency in DMEM with 10% FCS. The FCS was withdrawn after 24 hours and the cells were starved for 72 hours. At the end of this period the medium was supplemented with 10% FCS and carrier linked peptides. Samples were taken over a 24 hour time course and the cells were lysed in RIPA buffer (50 mM Tris-HCl, pH 8.0, containing 150 mM NaCl, 1.0% (v/v) NP-40, 0.5% (w/v) DOC, 0.1% (w/v) SDS, 1 mM PMSF, 0.1 mg/ml aprotinin and 0.5 mg/ml leupeptin) for 30 minutes at 4° C. The phosphorylation statues of pRb was determined by Western blot analysis, as previously described (Fahraeus et al, 1996) except that the blot was probed with a pRb polyclonal antibody (C-15, Santa Cruz).
Background: Immunoblotting shows a protein as a band on a membrane.

In a further test the test system is Soas2 cells. The test can be described thus: Cell cycle arrest in Rb negative cells. The class given is cell-based.
For test [6], the target named is T2, cyclin D1-Cdk4. The test can be described thus: Peptide phosphorylation by cyclin D1-Cdk4. The format is biochemical. The settings on record: conditions where 2.4 nMol 32P incorporated per nMol GST-Rb.
Protocol: The biotinylated peptides (1 μg) were incubated for 30 min at 30° C. in a final volume of 20 μl containing: 50 mM Hepes, pH 7.4, 10 mM MgCl2, 2.5 mM EGTA, 1 mM DTT, 10 mM β-glycerophosphate, 1 mM NaF, 10 mM PKI, 50 μM ATP containing [^32P]ATP (6000 cpm/pMol) and either 1 μl of cyclin D1-Cdk4 insect cell lysate, 1 μl of uninfected insect cell lysate or 0.02 mU of protein kinase C plus 0.5 mM CaCl2, 100 mg/ml phosphatidyl serine and 20 mg/ml diacylglycerol. The reactions were stopped by heating at 60° C. for 5 min and streptavidin agarose beads were added (10 μl packed cell volume washed with 3×PBS) and incubated with shaking at 4° C. for 30 min. The beads were washed extensively with PBS containing 3% (v/v) Tween-20 and the incorporation of radioactivity into the peptides was determined by Cerenkov counting.
The target of a further test is T3, cyclin B-Cdc2 (Homo sapiens, UniProt P06493).
T3 construct: made in house; host or cells: Sf9 insect cells, baculovirus co-infection; unpurified lysate
T3 sequence (P06493 whole entry): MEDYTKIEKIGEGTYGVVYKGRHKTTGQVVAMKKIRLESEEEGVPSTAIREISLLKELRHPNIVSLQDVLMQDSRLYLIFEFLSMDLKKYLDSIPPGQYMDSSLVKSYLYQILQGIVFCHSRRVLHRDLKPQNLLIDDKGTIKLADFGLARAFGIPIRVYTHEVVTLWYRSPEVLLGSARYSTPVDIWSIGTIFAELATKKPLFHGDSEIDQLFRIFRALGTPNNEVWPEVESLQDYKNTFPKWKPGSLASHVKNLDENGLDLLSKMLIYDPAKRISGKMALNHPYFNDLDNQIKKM
T3 sequence (P14635 whole entry partner): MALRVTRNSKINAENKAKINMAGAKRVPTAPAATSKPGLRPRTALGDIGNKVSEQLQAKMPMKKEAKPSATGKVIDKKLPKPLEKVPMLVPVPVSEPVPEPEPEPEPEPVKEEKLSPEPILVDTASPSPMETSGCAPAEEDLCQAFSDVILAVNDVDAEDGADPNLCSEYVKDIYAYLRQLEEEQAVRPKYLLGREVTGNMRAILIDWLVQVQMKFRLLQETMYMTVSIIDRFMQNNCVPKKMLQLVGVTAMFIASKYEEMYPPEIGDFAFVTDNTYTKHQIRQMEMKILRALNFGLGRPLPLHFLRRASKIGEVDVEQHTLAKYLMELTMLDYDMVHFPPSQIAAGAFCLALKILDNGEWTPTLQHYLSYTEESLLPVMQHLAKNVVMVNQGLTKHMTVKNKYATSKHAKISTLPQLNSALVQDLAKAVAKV
The test can be described thus: Cyclin B-Cdc2 histone H1 kinase assay. The settings on record: concentrations up to 20 μM. The class given is biochemical. As for the experimental part:
The conditions were identical to those described in the Experimental Procedures for cyclin D1-Cdk4 except that histone H1 (0.5 μg/assay) was used as the substrate for cyclin B-Cdc2.

For test [7], the target named is cyclin D1-Cdk4 complex co-expressed in Sf9 insect cells (lysate) (UniProt P11802 1-303; P24385 1-295). The test can be described thus: cell-based or functional assay.
Sequence of cyclin D1-Cdk4 complex co-expressed in Sf9 insect cells (lysate) (UniProt P11802 1-303; P24385 1-295) (P11802 whole entry, chain 1 of 2): as the sequence (P11802 whole entry) above
Sequence of cyclin D1-Cdk4 complex co-expressed in Sf9 insect cells (lysate) (UniProt P11802 1-303; P24385 1-295) (P24385 whole entry, chain 2 of 2): as the sequence (P24385 whole entry, further chain) above
Test [8] concerns the target T4, Cdk4 labelled with [35S]methionine, translated in rabbit reticulocyte lysate (human, UniProt P11802 1-303, [35S]methionine label).
T4 construct: also called 35S-labelled Cdk4
In words: peptide precipitation of 35S-labelled protein from reticulocyte lysate, SDS-PAGE and autoradiography.
Protocol: (§4) After extensive washing bound proteins were analysed using SDS-PAGE followed by autoradiography. The bands were quantified using a Bio-Imager and Whole Band Analysis Software (Millipore).
(§5) Peptide (1.5 μg) was diluted in 100 μl of PBS and incubated with 10 μl of packed streptavidin-agarose beads (Sigma) for 1 h at room temperature. Unbound peptide was removed by extensive washing with PBS and the beads, plus bound peptide, were incubated for 1 h at 4° C. with reticulocyte lysate containing either Cdk4 or cyclin D1 labelled with [^35S] methionine. […] The bound protein was analysed by SDS-PAGE followed by auto-radiography and quantification of the ^35S-labelled protein using a Bio-Imager and Whole Band Analysis Software (Millipore).

Test [9] has as its target T5, cyclin D1 labelled with [35S]methionine, translated in rabbit reticulocyte lysate (human, UniProt P24385 1-295, [35S]methionine label).
T5 construct: also called 35S-labelled cyclin D1
The description is as above.
Protocol: as §4, §5

Entries after “also recorded” stand apart in the source; their conditions may differ. Like-named read-outs stand apart in the source and are kept apart here. Where a SMILES comes first, the peptide text is derived from it. Where no end group is shown, it is not given here. Bounds are passed on as bounds.

T2 sequence (P11802 whole entry): as the sequence (P11802 whole entry) above
T2 sequence (P24385 whole entry): as the sequence (P24385 whole entry, further chain) above
Sequence of cyclin D1-Cdk4 complex co-expressed in Sf9 insect cells (lysate) (UniProt P11802) (P11802 whole entry, chain 1 of 2): as the sequence (P11802 whole entry) above
Sequence of cyclin D1-Cdk4 complex co-expressed in Sf9 insect cells (lysate) (UniProt P11802) (P24385 whole entry, chain 2 of 2, further chain): as the sequence (P24385 whole entry, further chain) above
T4 sequence (P11802 whole entry): as the sequence (P11802 whole entry) above
T5 sequence (P24385 whole entry): as the sequence (P24385 whole entry, further chain) above

On to “p16INK4 derived peptide (Fahraeus et al., 1996)”, for which the I0.5 for inhibition of cyclin D1-Cdk4 activity in test [1] stood at 16.3 µM. `CC[C@H](C)[C@H](NC(=O)[C@H](CC(C)C)NC(=O)[C@H](CCCNC(=N)N)NC(=O)[C@H](CCCNC(=N)N)NC(=O)[C@@H](N)CCCCN)C(=O)N[C@@H](Cc1ccccc1)C(=O)N[C@@H](CO)C(=O)N[C@@H](CCCCN)C(=O)O` (H-KRRLIFSK-OH; C-terminus assumed): the IC50 at cyclin D1-Cdk4 [2] is roughly 100 µM. Further, at cyclin D1-Cdk4 [3], the “cyclin D1-Cdk4 inhibitory activity” value is reported as “completely inhibit cyclin D1-Cdk4 activity”. In addition, the “fold higher I0.5 than full length peptide” value on cyclin D1-Cdk4 [3] (versus full length peptide 10) is “approximately 1000 fold”. Regarding “R-A mutant: peptide 10 with R-A at residue 15, equivalent to residue 155 of the full length protein (KRRQTSMTDFYHSKARLIFSSGSG)”, the “block of inhibitory activity of full length p21WAF1” value with cyclin D1-Cdk4 [4] is “able to block the inhibitory activity of full length p21^WAF1”. As to “peptide 11: extreme C-terminal peptide of p21WAF1, SEQ ID NO:11 (TSMTDFYHSKRRLIFSKRKP)”, the “cyclin D1-Cdk4 inhibitory activity” value with cyclin D1-Cdk4 [3] is on record as “potent inhibitor of Cdk4 activity”. The “inhibition of cyclin D1-Cdk4 activity” value in the test with cyclin D1-Cdk4 [3] (peptide at 17 μM) is “completely inhibited enzyme activity”.

Take “Peptide-II: truncated peptide 10 coupled to carrier peptide, SEQ ID NO:25 (KRRLIFSKRQIKIWFQNRRMKWKK)”: the “fold lower I0.5 in vitro than free peptide” value with cyclin D1-Cdk4 [3] (carrier linked versus free peptide, data not shown) is listed as “approximately 50 fold”. In addition, the “G1-, S-phase distribution / G1 arrest” value in the test with HaCaT cells is given as “effectively promoted a G1-phase arrest”. Also, the “fold less active as growth suppressor than Peptide-I” value with HaCaT cells (versus Peptide-I) stood at 2 fold. Moreover, in test [5], the “phosphorylation status of pRb” value is listed as “totally prevented the phosphorylation of pRb”. Consider “Peptide-I: peptide 10 with M to A at position 7 synthesised onto Antennapedia carrier peptide, SEQ ID NO:24 (KRRQTSATDFYHSKRRLIFSRQIKIWFQNRRMKWKK)”, for which the “G1-, S-phase distribution / G1 arrest” value with HaCaT cells is “number of cells entering S-phase in the presence of Peptide-I was dramatically reduced and the G1 population showed a concomitant increase”. The “phosphorylation status of pRb” value in test [5] is listed as “pRb remained hypophosphorylated”. Also, the “cell cycle arrest / G1 population in pRb negative cells” value in the test with Soas2 cells was “increase in the population of cells in G1 phase”.

On to “peptide 4: residues 46-65 of p21WAF1, SEQ ID NO:4, Biotin-SGSG spacer (RERWNFDFVTETPLEGDFAW; not fully specified (N-terminus, C-terminus))”, for which the “cyclin D1-Cdk4 inhibitory activity” value with cyclin D1-Cdk4 [3] is “no detectable activity; also recorded: no Cdk4 inhibitory activity”; with cyclin D1-Cdk4 [3] (concentrations of up to 35 μM), “no inhibitory activity”.

Turning to “8: synthetic peptide of the p21WAF1 library, SEQ ID NO:8 (AEEDHVDLSLSCTLVPRSGE) [compound 8]”, the “cyclin D1-Cdk4 inhibitory activity” value with cyclin D1-Cdk4 [3] is “only weak inhibition”. The “inhibition of cyclin D1-Cdk4 activity” value with cyclin D1-Cdk4 [3] (peptide at 17 μM) was “inhibited cyclin D1-Cdk4 activity”.

For `CC(C)C[C@H](NC(=O)[C@H](CCCNC(=N)N)NC(=O)[C@H](CCCNC(=N)N)NC(=O)[C@H](CS)NC(=O)[C@H](C)NC(=O)[C@@H](N)CCCCN)C(=O)N[C@@H](Cc1ccccc1)C(=O)NCC(=O)N1CCC[C@H]1C(=O)N[C@H](C(=O)N[C@@H](CC(=O)O)C(=O)N[C@@H](CO)C(=O)N[C@@H](CCC(=O)O)C(=O)N[C@@H](CCC(N)=O)C(=O)N[C@@H](CC(C)C)C(=O)N[C@@H](CO)C(=O)N[C@@H](CCCNC(=N)N)C(=O)N[C@@H](CC(=O)O)C(=O)N[C@@H](CS)C(=O)N[C@@H](CC(=O)O)C(=O)O)C(C)C` [peptide 2] (H-KACRRLFGPVDSEQLSRDCD-OH; C-terminus assumed), the inhibition at 17 µM at cyclin D1-Cdk4 [3] (peptide at 17 μM, read-out: inhibition of kinase activity) is roughly 80%. Moreover, on cyclin D1-Cdk4 [6], the “substrate for cyclin D1-Cdk4” value is “neither peptide 2 nor peptide 10 were substrates for cyclin D1-Cdk4”. Also, the “effect on Cdc2-cyclin B histone H1 kinase activity” value on cyclin B-Cdc2 was “neither peptide 2 nor peptide 10 had a significant effect”. For “Peptide-III: carrier linked control peptide 10 lacking the last 4 amino acids (LIFS), SEQ ID NO:26 (RQTSMTDFYHSKRRRQIKIWFQNRRMKWKK)”, in the test with HaCaT cells, the “G1-, S-phase distribution / G1 arrest” value is listed as “no detectable effect on the ability of HaCaT cells to enter S-phase”.

B1: peptide 2 (residues 16-35 of p21^WAF1) (peptide)
peptide: H-KACRRLFGPVDSEQLSRDCDSGSG
modifications: not fully specified (C-terminus); cysteine pairing not given here; also: biotin on C-terminal SGSG spacer, order not given here
notes: Synthetic biotinylated peptide, captured on streptavidin-agarose in the precipitation assay; The order of biotin and SGSG at the C-terminus is not spelled out
As for B1, the “I0.5 for inhibition of Cdk4 activity (GST-Rb phosphorylation)” value (from here on “I0.5 for inhibition of Cdk4 activity”) in test [7] stood at 2 µM. For the same molecule, the binding result in test [8] was “no binding”.

B2: peptide 10 (residues 141-160 of p21^WAF1) (peptide)
peptide: KRRQTSMTDFYHSKRRLIFSSGSG
modifications: not fully specified; Biotin-SGSG spacer at the C-terminus; free N-terminus
Take B2: the “I0.5 for inhibition of Cdk4 activity” value in [7] was determined as 0.1 µM.

B3: peptide 10 mutant with R-A at residue 15 of peptide 10 (residue 155 of the full length protein) (peptide)
peptide: H-KRRQTSMTDFYHSKARLIFSSGSG
modifications: not fully specified (C-terminus); also: biotin on C-terminal SGSG spacer, order not given here
Regarding B3, the “loss of inhibitory activity against cyclin D1-Cdk4 relative to peptide 10” value in [7] is greater than 60%.

B4: untagged eight amino acid peptide KRRLIFSK (peptide)
peptide: KRRLIFSK
As to B4, the “fold I0.5 against the full length peptide 10” value in [7] was roughly 1000 fold.

B5: peptide 4 (residues 46-65 of p21^WAF1) (peptide)
peptide: H-RERWNFDFVTETPLEGDFAWSGSG
modifications: not fully specified (C-terminus); also: biotin on C-terminal SGSG spacer, order not given here
notes: Synthetic biotinylated peptide
In the case of B5, the binding result in [9] is reported as “no binding”.

B6: Peptide-II (truncated peptide 10 linked to carrier peptide) (peptide)
peptide: KRRLIFSKRQIKIWFQNRRMKWKK
With B6, the “fold decrease in fold I0.5 in vitro against the free truncated peptide 10” value in test [7] was roughly 50 fold.

B7: peptide 11 (extreme C-terminal peptide of p21^WAF1) (peptide)
peptide: H-TSMTDFYHSKRRLIFSKRKPSGSG
modifications: not fully specified (C-terminus); also: biotin on C-terminal SGSG spacer, order not given here
In the case of B7, in [7], the “I0.5 for inhibition of Cdk4 activity” value turned out to be 0.1 µM.
